Measured values taken from the supplement of paper PMC6757056.
± gives the standard deviation of the averaged measurements.

B1: library; a variant is named by its letters at N, in order (parent)
chain: GCUGUCACCGGUGCUUGGUACGUUAUAUUCAGCCGGUCUGAUGAGUCUNNNNNNAGACGAAACAGC

Assays:
[1] = variants of: B1; assay: normalized RNA/DNA level without ligand (relative to sTRSVctl = 100) (log10 (% of sTRSVctl)); HEK293T overexpressing SLC46A1; higher = less ribozyme self-cleavage, higher mRNA level; details: without (6R,S)-folinic acid; ligand present: no
Procedure, shortened: (§1)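 Ribozyme switch library plasmids linked to reporters were introduced into HEK293T cells at 4 µg per 6-well well, with ligand, if any, added 1 h before. Total RNA was extracted with EDTA 72 h later, reverse-transcribed, amplified, barcoded and sequenced. RNA level was computed from RNA over DNA reads relative to a spiked-in non-cleaving sequence or the top sequences, then scaled and log-transformed. The top set was 25 sequences, values were ×100 and log10, and the cutoff was ≥100 DNA reads.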

[2] = variants of: B1; assay: normalized RNA/DNA level with ligand (relative to sTRSVctl = 100) (log10 (% of sTRSVctl)); HEK293T overexpressing SLC46A1; ligand concentration (+) RNA-Seq: 6 mM; higher = less ribozyme self-cleavage, higher mRNA level; details: with (6R,S)-folinic acid; ligand present: yes
Procedure, shortened: as §1

Variant	normalized RNA/DNA level without ligand (log10) [1]	normalized RNA/DNA level with ligand (log10) [2]
GCUGUCACCGGUGCUUGGUACGUUAUAUUCAGCCGGUCUGAUGAGUCUAGUCACAGACGAAACAGC [AGUCAC]	2.02 ± 0.024	2.02 ± 0.026
GCUGUCACCGGUGCUUGGUACGUUAUAUUCAGCCGGUCUGAUGAGUCUCGUCAGAGACGAAACAGC [CGUCAG]	2.001 ± 0.013	2.057 ± 0.013
GCUGUCACCGGUGCUUGGUACGUUAUAUUCAGCCGGUCUGAUGAGUCUGGUCAGAGACGAAACAGC [GGUCAG]	2.039 ± 0.018	2.04 ± 0.035
GCUGUCACCGGUGCUUGGUACGUUAUAUUCAGCCGGUCUGAUGAGUCUUGUCAGAGACGAAACAGC [UGUCAG]	1.771 ± 0.011	2 ± 0.026
GCUGUCACCGGUGCUUGGUACGUUAUAUUCAGCCGGUCUGAUGAGUCUAGUCAGAGACGAAACAGC [AGUCAG]	1.975 ± 0.016	2.02 ± 0.042
GCUGUCACCGGUGCUUGGUACGUUAUAUUCAGCCGGUCUGAUGAGUCUCGUCAUAGACGAAACAGC [CGUCAU]	2.01 ± 0.047	2 ± 0.021
GCUGUCACCGGUGCUUGGUACGUUAUAUUCAGCCGGUCUGAUGAGUCUGGUCAUAGACGAAACAGC [GGUCAU]	2.01 ± 0.025	2.01 ± 0.044
GCUGUCACCGGUGCUUGGUACGUUAUAUUCAGCCGGUCUGAUGAGUCUUGUCAUAGACGAAACAGC [UGUCAU]	1.955 ± 0.0075	2 ± 0.034
GCUGUCACCGGUGCUUGGUACGUUAUAUUCAGCCGGUCUGAUGAGUCUAGUCAUAGACGAAACAGC [AGUCAU]	1.998 ± 0.0079	2.0062 ± 1.5e-05
GCUGUCACCGGUGCUUGGUACGUUAUAUUCAGCCGGUCUGAUGAGUCUCGUCCAAGACGAAACAGC [CGUCCA]	2.0366 ± 0.0014	2.02 ± 0.035
GCUGUCACCGGUGCUUGGUACGUUAUAUUCAGCCGGUCUGAUGAGUCUAGUCCAAGACGAAACAGC [AGUCCA]	2.022 ± 0.0089	2.0202 ± 0.002
GCUGUCACCGGUGCUUGGUACGUUAUAUUCAGCCGGUCUGAUGAGUCUCGUCCCAGACGAAACAGC [CGUCCC]	2.003 ± 0.0083	1.95 ± 0.037
GCUGUCACCGGUGCUUGGUACGUUAUAUUCAGCCGGUCUGAUGAGUCUGGUCCCAGACGAAACAGC [GGUCCC]	2.043 ± 0.016	2.01 ± 0.027
GCUGUCACCGGUGCUUGGUACGUUAUAUUCAGCCGGUCUGAUGAGUCUUGUCCCAGACGAAACAGC [UGUCCC]	2.06 ± 0.024	2.033 ± 0.017
GCUGUCACCGGUGCUUGGUACGUUAUAUUCAGCCGGUCUGAUGAGUCUAGUCCCAGACGAAACAGC [AGUCCC]	2.019 ± 0.0039	2.046 ± 0.0072
GCUGUCACCGGUGCUUGGUACGUUAUAUUCAGCCGGUCUGAUGAGUCUCGUCCGAGACGAAACAGC [CGUCCG]	2.04 ± 0.026	2.037 ± 0.015
GCUGUCACCGGUGCUUGGUACGUUAUAUUCAGCCGGUCUGAUGAGUCUGGUCCGAGACGAAACAGC [GGUCCG]	2.04 ± 0.018	2.03 ± 0.03
GCUGUCACCGGUGCUUGGUACGUUAUAUUCAGCCGGUCUGAUGAGUCUUGUCCGAGACGAAACAGC [UGUCCG]	1.86 ± 0.022	1.99 ± 0.033
GCUGUCACCGGUGCUUGGUACGUUAUAUUCAGCCGGUCUGAUGAGUCUAGUCCGAGACGAAACAGC [AGUCCG]	1.988 ± 0.0076	2 ± 0.025
GCUGUCACCGGUGCUUGGUACGUUAUAUUCAGCCGGUCUGAUGAGUCUCGUCCUAGACGAAACAGC [CGUCCU]	2.11 ± 0.011	2.06 ± 0.031
GCUGUCACCGGUGCUUGGUACGUUAUAUUCAGCCGGUCUGAUGAGUCUGGUCCUAGACGAAACAGC [GGUCCU]	2.09 ± 0.0075	2.09 ± 0.062

Variant	normalized RNA/DNA level without ligand (log10) [1]	normalized RNA/DNA level with ligand (log10) [2]
GCUGUCACCGGUGCUUGGUACGUUAUAUUCAGCCGGUCUGAUGAGUCUUGUCCUAGACGAAACAGC [UGUCCU]	2.03 ± 0.034	2.07 ± 0.026
GCUGUCACCGGUGCUUGGUACGUUAUAUUCAGCCGGUCUGAUGAGUCUAGUCCUAGACGAAACAGC [AGUCCU]	2.048 ± 0.0074	2.05 ± 0.029
GCUGUCACCGGUGCUUGGUACGUUAUAUUCAGCCGGUCUGAUGAGUCUCGUCGAAGACGAAACAGC [CGUCGA]	2.012 ± 0.0023	2.019 ± 0.019
GCUGUCACCGGUGCUUGGUACGUUAUAUUCAGCCGGUCUGAUGAGUCUGGUCGAAGACGAAACAGC [GGUCGA]	2.0344 ± 0.00085	2.01 ± 0.026
GCUGUCACCGGUGCUUGGUACGUUAUAUUCAGCCGGUCUGAUGAGUCUUGUCGAAGACGAAACAGC [UGUCGA]	1.904 ± 0.0056	1.994 ± 0.013
GCUGUCACCGGUGCUUGGUACGUUAUAUUCAGCCGGUCUGAUGAGUCUCGUCGCAGACGAAACAGC [CGUCGC]	2.06 ± 0.037	2 ± 0.092
GCUGUCACCGGUGCUUGGUACGUUAUAUUCAGCCGGUCUGAUGAGUCUGGUCGCAGACGAAACAGC [GGUCGC]	1.952 ± 0.012	2 ± 0.032
GCUGUCACCGGUGCUUGGUACGUUAUAUUCAGCCGGUCUGAUGAGUCUUGUCGCAGACGAAACAGC [UGUCGC]	1.966 ± 0.0063	2.024 ± 0.0019
GCUGUCACCGGUGCUUGGUACGUUAUAUUCAGCCGGUCUGAUGAGUCUAGUCGCAGACGAAACAGC [AGUCGC]	2.012 ± 0.015	1.98 ± 0.031
GCUGUCACCGGUGCUUGGUACGUUAUAUUCAGCCGGUCUGAUGAGUCUCGUCGGAGACGAAACAGC [CGUCGG]	2.01 ± 0.026	2.08 ± 0.049
GCUGUCACCGGUGCUUGGUACGUUAUAUUCAGCCGGUCUGAUGAGUCUGGUCGGAGACGAAACAGC [GGUCGG]	2.053 ± 0.02	2.07 ± 0.062
GCUGUCACCGGUGCUUGGUACGUUAUAUUCAGCCGGUCUGAUGAGUCUAGUCGGAGACGAAACAGC [AGUCGG]	1.938 ± 0.0053	2 ± 0.053
GCUGUCACCGGUGCUUGGUACGUUAUAUUCAGCCGGUCUGAUGAGUCUCGUCGUAGACGAAACAGC [CGUCGU]	2.04 ± 0.032	2 ± 0.03
GCUGUCACCGGUGCUUGGUACGUUAUAUUCAGCCGGUCUGAUGAGUCUGGUCGUAGACGAAACAGC [GGUCGU]	2.034 ± 0.015	2.029 ± 0.0084
GCUGUCACCGGUGCUUGGUACGUUAUAUUCAGCCGGUCUGAUGAGUCUGGUCUAAGACGAAACAGC [GGUCUA]	2.01 ± 0.021	2.03 ± 0.029
GCUGUCACCGGUGCUUGGUACGUUAUAUUCAGCCGGUCUGAUGAGUCUUGUCUAAGACGAAACAGC [UGUCUA]	1.991 ± 0.0035	2.02 ± 0.043
GCUGUCACCGGUGCUUGGUACGUUAUAUUCAGCCGGUCUGAUGAGUCUAGUCUAAGACGAAACAGC [AGUCUA]	1.992 ± 0.0093	2.02 ± 0.05
GCUGUCACCGGUGCUUGGUACGUUAUAUUCAGCCGGUCUGAUGAGUCUGGUCUCAGACGAAACAGC [GGUCUC]	2.0526 ± 0.0017	2.06 ± 0.026
GCUGUCACCGGUGCUUGGUACGUUAUAUUCAGCCGGUCUGAUGAGUCUUGUCUCAGACGAAACAGC [UGUCUC]	2.06 ± 0.022	2.052 ± 0.02
GCUGUCACCGGUGCUUGGUACGUUAUAUUCAGCCGGUCUGAUGAGUCUAGUCUCAGACGAAACAGC [AGUCUC]	2.03 ± 0.016	2.02 ± 0.041
